Consider three molecules from paper PMC6018538, “The CYP71AZ P450 Subfamily: A Driving Factor for the Diversification of Coumarin Biosynthesis in Apiaceous Plants” (Frontiers in Plant Science, 2018).

Data set [1] deals with CYP71AZ4 (Pastinaca sativa, UniProt A0A2Z5D854). The conditions noted are these: read-out: Apparent affinity (μM) / CYP71AZ4; NADPH; product xanthotoxol.
The subject of data set [2] is COc1cc2ccc(=O)oc2cc1O. The experiment in a line: cells, lysate or membranes. The conditions noted are these: NADPH; product fraxetin.
Data set [3] deals with COc1ccc2ccc(=O)oc2c1. The experiment in a line: cells, lysate or membranes. Conditions: NADPH; product daphnetin 7-methyl ether.
Data set [4] has as its system COc1ccc2cc(C)c(=O)oc2c1. The experiment in a line: cells, lysate or membranes. The conditions noted are these: NADPH; product 8-hydroxy-3-methyl-7-methoxycoumarin.
Data set [5] has as its system COc1ccc2oc(=O)ccc2c1. The data set is described as follows: cells, lysate or membranes. Conditions: NADPH; product scopoletin (P04).
Substrate in data set [6]: O=c1ccc2cc(O)c(O)cc2o1
The data set is described as follows: cells, lysate or membranes. Conditions: NADPH; product 6,7,8-trihydroxycoumarin.

CYP71AZ4, sequence (A0A2Z5D854 whole entry): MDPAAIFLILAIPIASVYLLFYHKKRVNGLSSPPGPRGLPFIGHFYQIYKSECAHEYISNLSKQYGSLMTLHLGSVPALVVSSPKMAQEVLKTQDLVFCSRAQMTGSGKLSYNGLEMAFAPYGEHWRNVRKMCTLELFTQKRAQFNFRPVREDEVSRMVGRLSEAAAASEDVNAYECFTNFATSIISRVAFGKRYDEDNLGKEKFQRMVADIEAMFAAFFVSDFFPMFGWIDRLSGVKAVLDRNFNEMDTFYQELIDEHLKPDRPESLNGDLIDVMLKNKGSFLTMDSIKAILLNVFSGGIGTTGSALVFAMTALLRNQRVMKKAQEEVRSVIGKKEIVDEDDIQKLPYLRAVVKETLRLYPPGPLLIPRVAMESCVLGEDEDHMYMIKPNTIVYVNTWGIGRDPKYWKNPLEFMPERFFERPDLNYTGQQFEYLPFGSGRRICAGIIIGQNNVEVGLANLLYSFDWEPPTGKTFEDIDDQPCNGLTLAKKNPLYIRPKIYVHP

Turning to `O=c1ccc2cc3ccoc3cc2o1` [psoralen], the Km in data set [1] amounted to 11.3 ± 2.2 µM.

Take CYP71AZ4 (Pastinaca sativa): the Km in data set [2] was 762.2 ± 586.4 µM; in data set [3], 72.5 ± 15.2 µM; in data set [4] it was 159.9 ± 41.1 µM; in data set [5] it was 9.5 ± 1.5 µM.

B1: CYP71AZ3 (Pastinaca sativa) (protein)
chain: MEPVFLFLILAFPIASVYLLFYHKKRVVGLSAPPGPPGLPFIGNFHQLYKASSTHEYLWSLSKQYGSLVTLRMGSVPILVVSSPKMAKEVLQTQDLIYCSRPAMTGMQKLSYNGLDVAFSPYTDQWRHTRKFCTLELFTQKRAQLNFRPVREQEVSRMIARLSETAAASKDVNAYEWFSNLATCIISRVAFGKRYDEDGIGKERFQRMLSEIDAMFIGFFVSDFFPMFGWIDKLSGMRDRLDRTFKDLDMFYQELIDEHLKPNRLESPTEDLIDVMLKNEGSSLTKDSMKAILLNVFNGGTGTTATVLAWAMTALLRNQGVMKKAQEEIRSVIGKKGKVDEDDFPSLPYLRAVVKETMRLYPPAPVLVPRETMESSIIGEDKDHMYMVKPKTVVYISMWAIGRDPKTWKNPMEFVPERFLERPDINYKGQQFEYVPFGAGRRICAGINLGVTTVELALANLLYTFDWEPPAGMRFEDIDDETTNGLALQKKNALYIRPKKYMFP
For B1, the Km in data set [6] was 248.6 ± 51.9 µM.
